Test results published in the supplement of paper PMC11908140.

B1: library; numbered along this chain (parent)
chain: MRKPRAAVGSGHRKQAASQEGRQKHAKNNSQAKPSACDGLARQPEEVVLQASVSSYHLFRDVAEVTAFRGSLLSWYDQEKRDLPWRRRAEDEMDLDRRAYAVWVSEVMLQQTQVATVINYYTGWMQKWPTLQDLASASLEEVNQLWAGLGYYSRGRRLQEGARKVVEELGGHMPRTAETLQQLLPGVGRYTAGAIASIAFGQATGVVDGNVARVLCRVRAIGADPSSTLVSQQLWGLAQQLVDPARPGDFNQAAMELGATVCTPQRPLCSQCPVESLCRARQRVEQEQLLASGSLSGSPDVEECAPNTGQCHLCLPPSEPWDQTLGVVNFPRKASRKPPREESSATCVLEQPGALGAQILLVQRPNSGLLAGLWEFPSVTWEPSEQLQRKALLQELQRWAGPLPATHLRHLGEVVHTFSHIKLTYQVYGLALEGQTPVTTVPPGARWLTQEEFHTAAVSTAMKKVFRVYQGQQPGTCMGSKRSQVSSPCSRKKPRMGQQVLDNFFRSHISTDAHSLNSAAQ

Variants of: B1
Assay: 8OG:A repair function score (normalized; synonymous = 0, nonsense = -1) (normalized log-likelihood score); higher = more repair activity (WT-like)
Details: with 8OG:A DNA repair reporter (GFP) in HEK-293 MUTYH KO cells
In short: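 After 72 h, viable mCherry+ cells were split into GFP+ (repair) and GFP− bins in three replicates per tile. These cells were MUTYH knockout HEK-293 cells holding lentiviral MUTYH cDNA NNN codon-scan libraries, kept in 10 pg/ml doxycycline and co-transfected with mCherry plus an 8OG:A GFP repair reporter. Sequencing of tile amplicons gave per-tile Rosace fitness scores, normalized into a repair function score anchored on synonymous and nonsense distributions. Synonymous medians were fixed at 0, nonsense at -1, and variants under 300 counts per million at the start were removed.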
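Also: cells sorted at 72 h after reporter transfection.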

| Variant | 8OG:A repair function score |
| --- | --- |
| Y469L | -0.314 |
| S480A | 0.0216 |
| Q110P | -0.29 |
| I198K | -1.06 |
| S518R | -0.0226 |
| P44H | -0.0386 |
| A137G | -0.176 |
| A520W | -0.0228 |
| R86K | -0.756 |
| T308Q | 0.0017 |
| L180Q | -0.655 |
| F505R | 0.016 |
| S486E | 0.0262 |
| N503L | 0.00339 |
| Q498H | -0.0117 |
| A51N | -0.00641 |
| Q265V | -0.0775 |
| E79W | -0.0018 |
| K463G | -0.303 |
| G497P | -0.0806 |
| L234I | -0.183 |
| C311F | -0.55 |
| D249F | -0.75 |
| R336C | -0.0115 |

| Variant | 8OG:A repair function score |
| --- | --- |
| V261K | -0.147 |
| R98E | -0.275 |
| G39P | 0.0274 |
| G186D | -0.855 |
| L49C | 0.125 |
| C216G | -0.663 |
| P331Q | -0.608 |
| S294K | -0.0502 |
| Q181A | -0.034 |
| G293Y | -0.0734 |
| V328R | 0.0191 |
| A63P | -0.0204 |
| L49E | 0.0582 |
| N503W | -0.011 |
| E287T | -0.00299 |
| R154S | -1.03 |
| H57L | -0.734 |
| E341I | -0.0537 |
| G475C | 0.00154 |
| S294P | -0.0152 |
| A177S | -0.1 |
| S136L | -0.0288 |
| A196S | 0.00714 |
| H172E | 0.017 |

| Variant | 8OG:A repair function score |
| --- | --- |
| L373F | 0.16 |
| M462G | -0.215 |
| W235E | -0.204 |
| R88P | -0.00404 |
| S71F | 0.00684 |
| C278P | -1.2 |
| L234W | -0.79 |
| E319M | -0.0278 |
| R217S | -1.03 |
| E46N | -0.0764 |
| E256I | -0.901 |
| S486T | 0.0101 |
| G497N | 0.0269 |
| V117D | -1 |
| R506A | -0.0637 |
| L516Q | 0.0225 |
| G188K | -1.11 |
| G123P | 0.0736 |
| G401M | -0.302 |
| Q394C | -0.273 |
| A345K | -0.499 |
| V211E | -0.951 |
| V327Q | -0.4 |
| T424L | -0.165 |

| Variant | 8OG:A repair function score |
| --- | --- |
| T380M | -0.0793 |
| G401Q | -0.521 |
| Y120F | -0.0973 |
| E451I | -0.186 |
| G356I | -0.348 |
| G475P | -0.00826 |
| P494W | -0.0155 |
| E275S | 0.00561 |
| W128H | -0.948 |
| R283M | -0.0516 |
| V62P | 0.00101 |
| K127R | 0.014 |
| L315H | -0.308 |
| L349S | -0.842 |
| S419K | 0.0315 |
| D208T | -1.03 |
| K333V | -0.0946 |
| A371T | -0.307 |
| A280Q | -0.761 |
| L149Y | -0.657 |
| D133W | -0.988 |
| A196E | -0.674 |
| G356Y | -0.0505 |
| E413H | 0.00964 |

| Variant | 8OG:A repair function score |
| --- | --- |
| S231C | -0.12 |
| L215R | -1.02 |
| E160V | -0.00913 |
| V65R | -0.0229 |
| S227W | -0.244 |
| A354E | -0.0284 |
| G297D | -0.0132 |
| A520D | -0.0192 |
| V107I | 0.0887 |
| V65F | -0.0274 |
| L40S | 0.073 |
| P316W | -0.331 |
| P174N | -0.958 |
| S270W | -0.0132 |
| L268R | 0.00479 |
| K422L | -0.353 |
| V438S | -0.176 |
| L432H | -0.223 |
| L360I | -0.403 |
| Q323W | -0.0368 |
| S419H | -0.28 |
| V211C | -0.265 |
| T455M | -0.111 |
| V48P | -0.11 |

| Variant | 8OG:A repair function score |
| --- | --- |
| S298W | -0.00249 |
| Q233E | -0.306 |
| L432I | -0.208 |
| T424M | -0.383 |
| Q126V | -0.0961 |
| K3L | 0.0859 |
| D322E | 0.0971 |
| Q202K | 0.0342 |
| V327S | -0.274 |
| S276N | -0.00423 |
| C278E | -0.92 |
| G248I | -1.02 |
| V62W | -0.0135 |
| R246K | -0.495 |
| T449G | -0.132 |
| A456P | -0.814 |
| E106L | -1.25 |
| E433I | 0.00922 |
| E46M | -0.119 |
| A520H | -0.0164 |
| Q388T | -0.108 |
| V465Y | -1.23 |
| H420F | -0.576 |
| G444M | -0.298 |

| Variant | 8OG:A repair function score |
| --- | --- |
| D82G | -0.0955 |
| F68Y | -0.0444 |
| S55N | 0.00188 |
| R409L | 0.0499 |
| S270R | -0.00848 |
| S292M | -0.0481 |
| E106I | -1.13 |
| P402K | -0.00401 |
| C262Q | -1.27 |
| L149Q | -1.06 |
| G444E | -0.0932 |
| R446L | -0.202 |
| Q43L | 0.0948 |
| G170L | -0.232 |
| L313N | -0.337 |
| L408N | -0.893 |
| S138V | -0.188 |
| S518Y | 0.0286 |
| Q386K | -0.213 |
| C216M | -0.646 |
| G475N | 0.0259 |
| I198V | -0.254 |
| A400W | -0.139 |
